# Results from PMC12697862.
# Target: IP3R1 channel fragment E
# Experiment: co-IP (IP: Flag, immunoblot for Myc) with band quantification
# Conditions: LV-GRP75-Flag(mutant) with IP3R1E-Myc; n = 5; means ± SEM; read off a plot
row,response (relative level of Myc/Flag (IP group)),Substance
1,1,"GRP75, transfected for co-IP (from UniProt P38647) K567R; K612R"
2,0.47,"GRP75, transfected for co-IP (from UniProt P38647) K567Q; K612Q"
